From the supplement of paper PMC11246515
± gives the standard deviation of the averaged measurements.

Test: total protein half-life in vivo (active degradation + dilution); higher = more stable protein
[1] = E. coli NCM3722 delta-clpP delta-lon delta-hslV, growth: N-lim chemostat, doubling time 6 h
[2] = wild type E. coli NCM3722, growth: C-lim chemostat, doubling time 12 h
[3] = E. coli NCM3722 delta-clpP, growth: N-lim chemostat, doubling time 6 h
[4] = E. coli NCM3722 delta-hslV, growth: N-lim chemostat, doubling time 6 h
[5] = E. coli NCM3722 delta-smpB, growth: N-lim chemostat, doubling time 6 h
[6] = wild type E. coli NCM3722, growth: C-lim chemostat, doubling time 3 h
[7] = wild type E. coli NCM3722, growth: C-lim chemostat, doubling time 6 h
[8] = wild type E. coli NCM3722, growth: N-lim chemostat, doubling time 6 h
[9] = wild type E. coli NCM3722, growth: N-lim chemostat, doubling time 12 h
[10] = wild type E. coli NCM3722, growth: P-lim chemostat, doubling time 6 h
[11] = wild type E. coli NCM3722, growth: P-lim chemostat, doubling time 12 h
[12] = E. coli NCM3722 delta-lon, growth: N-lim chemostat, doubling time 6 h

Sequence | total protein half-life in vivo [1] [h] | total protein half-life in vivo [2] [h] | total protein half-life in vivo [3] [h] | total protein half-life in vivo [4] [h] | total protein half-life in vivo [5] [h] | total protein half-life in vivo [6] [h] | total protein half-life in vivo [7] [h] | total protein half-life in vivo [8] [h] | total protein half-life in vivo [9] [h] | total protein half-life in vivo [10] [h] | total protein half-life in vivo [11] [h] | total protein half-life in vivo [12] [h]
MIIHFTLNGAPQELTVNPGENVQKLLFNMGMHSVRNSDDGFGFAGSDAIIFNGNIVNASLLIAAQLEKADIRTAESLGKWNELSLVQQAMVDVGVVQSGYNDPAAALIITDLLDRIAAPTREEIDDALSGLFSRDAGWQQYYQVIELAVARKNNPQATIDIAPTFRDDLEVIGKHYPKTDAAKMVQAKPCYVEDRVTADACVIKMLRSPHAHALITHLDVSKAEALPGVVHVITHLNCPDIYYTPGGQSAPEPSPLDRRMFGKKMRHVGDRVAAVVAESEEIALEALKLIDVEYEVLKPVMSIDEAMAEDAPVVHDEPVVYVAGAPDTLEDDNSHAAQRGEHMIINFPIGSRPRKNIAASIHGHIGDMDKGFADADVIIERTYNSTQAQQCPTETHICFTRMDGDRLVIHASTQVPWHLRRQVARLVGMKQHKVHVIKERVGGGFGSKQDILLEEVCAWATCVTGRPVLFRYTREEEFIANTSRHVAKVTVKLGAKKDGRLTAVKMDFRANTGPYGNHSLTVPCNGPALSLPLYPCDNVDFQVTTYYSNICPNGAYQGYGAPKGNFAITMALAELAEQLQIDQLEIIERNRVHEGQELKILGAIGEGKAPTSVPSAASCALEEILRQGREMIQWSSPKPQNGDWHIGRGVAIIMQKSGIPDIDQANCMIKLESDGTFIVHSGGADIGTGLDTVVTKLAAEVLHCPPQDVHVISGDTDHALFDKGAYASSGTCFSGNAARLAAENLREKILFHGAQMLGEPVADVQLATPGVVRGKKGEVSFGDIAHKGETGTGFGSLVGTGSYITPDFAFPYGANFAEVAVNTRTGEIRLDKFYALLDCGTPVNPELALGQIYGATLRAIGHSMSEEIIYDAEGHPLTRDLRSYGAPKIGDIPRDFRAVLVPSDDKVGPFGAKSISEIGVNGAAPAIATAIHDACGIWLREWHFTPEKILTALEKI | > 8 | 9.16 |  |  |  |  |  |  |  |  |  | 
MIIKRTPQAASPLASWLSYLENLHSKTIDLGLERVSLVAARLGVLKPAPFVFTVAGTNGKGTTCRTLESILMAAGYKVGVYSSPHLVRYTERVRVQGQELPESAHTASFAEIESARGDISLTYFEYGTLSALWLFKQAQLDVVILEVGLGGRLDATNIVDADVAVVTSIALDHTDWLGPDRESIGREKAGIFRSEKPAIVGEPEMPSTIADVAQEKGALLQRRGVEWNYSVTDHDWAFSDAHGTLENLPLPLVPQPNAATALAALRASGLEVSENAIRDGIASAILPGRFQIVSESPRVIFDVAHNPHAAEYLTGRMKALPKNGRVLAVIGMLHDKDIAGTLAWLKSVVDDWYCAPLEGPRGATAEQLLEHLGNGKSFDSVAQAWDAAMADAKAEDTVLVCGSFHTVAHVMEVIDARRSGGK | 4.62 ± 0.55 | 9.2 ± 1.6 | 4.95 ± 1.1 | 4.08 ± 0.39 | 3.813 ± 0.021 | 3.151 ± 0.024 | 5.09 ± 0.13 | 3.807 ± 0.036 | 6.07 ± 0.99 | 5.34 ± 0.23 | 9.6 ± 0.66 | 
MIINNVKLVLENEVVSGSLEVQNGEIRAFAESQSRLPEAMDGEGGWLLPGLIELHTDNLDKFFTPRPKVDWPAHSAMSSHDALMVASGITTVLDAVAIGDVRDGGDRLENLEKMINAIEETQKRGVNRAEHRLHLRCELPHHTTLPLFEKLVQREPVTLVSLMDHSPGQRQFANREKYREYYQGKYSLTDAQMQQYEEEQLALAARWSQPNRESIAALCRARKIALASHDDATHAHVAESHQLGSVIAEFPTTFEAAEASRKHGMNVLMGAPNIVRGGSHSGNVAASELAQLGLLDILSSDYYPASLLDAAFRVADDQSNRFTLPQAVKLVTKNPAQALNLQDRGVIGEGKRADLVLAHRKDNHIHIDHVWRQGKRVF |  |  |  |  |  |  |  |  |  | 1.05 ± 0.23 | 1.89 ± 0.87 | 
MIISAASDYRAAAQRILPPFLFHYMDGGAYSEYTLRRNVEDLSEVALRQRILKNMSDLSLETTLFNEKLSMPVALAPVGLCGMYARRGEVQAAKAADAHGIPFTLSTVSVCPIEEVAPAIKRPMWFQLYVLRDRGFMRNALERAKAAGCSTLVFTVDMPTPGARYRDAHSGMSGPNAAMRRYLQAVTHPQWAWDVGLNGRPHDLGNISAYLGKPTGLEDYIGWLGNNFDPSISWKDLEWIRDFWDGPMVIKGILDPEDARDAVRFGADGIVVSNHGGRQLDGVLSSARALPAIADAVKGDIAILADSGIRNGLDVVRMIALGADTVLLGRAFLYALATAGQAGVANLLNLIEKEMKVAMTLTGAKSISEITQDSLVQGLGKELPAALAPMAKGNAA | 6.01 ± 0.3 | 5.29 ± 0.5 | 5.992 ± 0.053 | 4 ± 0.14 | 3.68 ± 0.38 | 2.28 ± 0.062 | 3.76 ± 0.41 | 3.73 ± 0.068 | 6.57 ± 0.92 | 3.28 ± 0.48 | 6.38 ± 0.44 | 3.3 ± 0.036
MIISEMQRKLATWAATDPSLRIQRLLRLITQPEWLAEAARITLSSKGAHTPGVDGVNKTMLQARLAVELQILRDELLSGHYQPLPARRVYIPKSNGKLRPLGIPALRDRIVQRAMLMAMEPIWESDFHTLSYGFRPERSVHHAIRTVKLQLTDCGETRGRWVIEGDLSSYFDTVHHRLLMKAVRRRISDARFMTLLWKTIKAGHIDVGLFRAASEGVPQGGVISPLLSNIMLNEFDQYLHERYLSGKARKDRWYWNNSIQRGRSTAVRENWQWKPAVAYCRYADDFVLIVKGTKAQVEAIREECRGVLEGSLKLRLNMDKTKIPHVNDGFIFLGHRLIRKRSRYGEMRVVSTIPQEKARNFAASLTALLWKVRISGEILLG | 4.72 ± 0.55 |  |  |  |  |  |  |  |  |  |  | 
MIIYLHGFDSNSPGNHEKVLQLQFIDPDVRLISYSTRHPKHDMQHLLKEVDKMLQLNVDERPLICGVGLGGYWAERIGFLCDIRQVIFNPNLFPYENMEGKIDRPEEYADIATKCVTNFREKNRDRCLVILSRNDEALNSQRTSEELHHYYEIVWDEEQTHKFKNISPHLQRIKAFKTLG [P0A8E1] | 4.77 ± 0.071 | 7.7 ± 1.6 | 4.58 ± 1.1 | 4.44 ± 0.73 | 4.37 ± 0.91 | 2.64 ± 0.47 | 4.65 ± 0.2 | 3.92 ± 0.39 | 6.49 ± 0.25 | 5.07 ± 0.15 | 10.6 ± 0.38 | 4.75 ± 0.35
MIKATDRKLVVGLEIGTAKVAALVGEVLPDGMVNIIGVGSCPSRGMDKGGVNDLESVVKCVQRAIDQAELMADCQISSVYLALSGKHISCQNEIGMVPISEEEVTQEDVENVVHTAKSVRVRDEHRVLHVIPQEYAIDYQEGIKNPVGLSGVRMQAKVHLITCHNDMAKNIVKAVERCGLKVDQLIFAGLASSYSVLTEDERELGVCVVDIGGGTMDIAVYTGGALRHTKVIPYAGNVVTSDIAYAFGTPPSDAEAIKVRHGCALGSIVGKDESVEVPSVGGRPPRSLQRQTLAEVIEPRYTELLNLVNEEILQLQEKLRQQGVKHHLAAGIVLTGGAAQIEGLAACAQRVFHTQVRIGAPLNITGLTDYAQEPYYSTAVGLLHYGKESHLNGEAEVEKRVTASVGSWIKRLNSWLRKEF [P0ABH0] | 6.03 ± 0.16 | 10 ± 0.52 | 6.41 ± 0.51 | 6.33 ± 0.27 | 5.42 ± 0.13 | 3.04 ± 0.12 | 5.738 ± 0.047 | 5.48 ± 0.26 | 10.8 ± 0.71 | 5.868 ± 0.02 | 11.3 ± 0.42 | 6.06 ± 0.5
